Data from PMC8304084, “A Concerted Action of UBA5 C-Terminal Unstructured Regions Is Important for Transfer of Activated UFM1 to UFC1” (International Journal of Molecular Sciences, 2021).

What was measured:
UFC1 = molecular target: T1, UFC1 (Homo sapiens, UniProt Q9Y3C8); experiment: In vitro thioester formation (ufmylation) assay, UFC1~UFM1 conjugate; assay type: biochemical; settings: 1 mM ATP, 22 °C; peptides added to UBA5 AD^1–330 where applicable
T1 construct: Full length UFC1, residues 1–167; modified ubiquitin tag (Ub19) with TEV site (N, cleaved yes); made in house; host or cells: E. coli T7 Express
T1 sequence (Q9Y3C8 1-167): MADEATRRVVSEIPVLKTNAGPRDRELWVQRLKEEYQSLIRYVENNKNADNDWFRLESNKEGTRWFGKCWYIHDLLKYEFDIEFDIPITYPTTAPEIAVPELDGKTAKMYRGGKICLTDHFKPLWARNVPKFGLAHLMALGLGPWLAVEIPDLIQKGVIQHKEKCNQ
Procedure: First, we analyzed the effect of the UBA5 C-terminus on UFM1 transfer to UFC1 with an in vitro thioester formation assay (Figure 1B–E).
Ufmylation reaction assays were adopted from work of Xie. Briefly, 70 µM UFM1, 20 µM UFC1 and 20 µM of different UBA5 constructs were mixed in reaction buffer (50 mM HEPES pH = 7.5, 100 mM NaCl, 5 mM MgCl2). After starting the reaction with addition of 1 mM ATP, the reaction mix was incubated at 22 °C for the desired time. To quench the reaction and prepare electrophoretic samples, 1 µL of the reaction mix was added to 99 µL 1x non-reducing SDS loading buffer and frozen in liquid nitrogen. Sample content was visualized by sodium dodecyl sulfate polyacrylamide gel electrophoresis (SDS-PAGE). The transfer to polyvinylidene difluoride (PVDF) membrane was performed via a Trans-Blot® Turbo™ Transfer System (Bio-Rad, München, Germany). After transfer the membrane was blocked with TBST (Tris-buffered saline with Tween20 buffer, 20 mM Tris, 150 mM NaCl and 0.1% TWEEN 20) containing 5% w/v nonfat dry milk for 1 h, followed by α-UFC1 antibody incubation over night at 4 °C (ab189251 abcam, 1:10,000 in TBST containing 5% w/v nonfat dry milk). After washing with TBST the membrane was incubated with secondary antibody (anti-rabbit-HRP) for 1 h at RT and again washed with TBST. Detection was performed by addition of ECL solution. For quantification of UFC1 ufmylation coloc2 software implemented in ImageJ was used.

UBA5 AD^1–330 = experiment: ITC, UBA5 C-terminus vs UBA5 AD; assay type: binding; settings: 25 °C, R1-R2-R3^325–404 titrated into AD^1–330 solution
From the text: (§1) To understand how the UBA5 C-terminus participates in the ufmylation cascade, we performed isothermal titration calorimetry (ITC) experiments, in which we titrated UBA5 C-terminal peptides (see Table 1) to the UBA5 AD, UFC1, UFM1 and representative LC3/GABARAP proteins (Figure 2A, Supplementary Figure S2A–D and Table 2).
All proteins and peptides were expressed in E.Coli T7 Express (New England Biolabs GmbH, Frankfurt, Germany) cells in LB or M9 (to obtain ^15N- and ^13C,^15N-labeled polypeptides) media according to the protocol described in [33, 36]. For protein purification, bacterial cell pellets were resuspended in lysis buffer (50 mM Tris-HCl pH = 7.5, 100 mM NaCl, 5% glycerol, 5 mM PIC (protease inhibitor cocktail)) and lysed via sonication (TT13 Sonotrode, 40% amplitude, for 6 × 1 min with a 0.5/0.5-s pulse). Lysates were centrifuged for 45 min at 17,000× g at 4 °C. […] The protein and peptide concentrations were calculated from the UV absorption at 280 nm by Nanodrop spectrophotometer (Thermo Scientific, Langenselbold, Germany).
All ITC experiments were performed at 25 °C using a VP-ITC microcalorimeter (Malvern Panalytical Ltd., Malvern, UK). […] The ITC data were analyzed based on a “one-site” binding model with MicroCal ITC software implemented in Origin 7.0. […]

GABARAPL2 = molecular target: T2, GABARAPL2 (Homo sapiens, UniProt P60520); experiment: ITC, UBA5 peptides vs GABARAPL2; assay type: binding; settings: 25 °C
T2 construct: modified ubiquitin tag (Ub19) with TEV site (N, cleaved yes); made in house; host or cells: E. coli T7 Express
T2 sequence (P60520 3-116): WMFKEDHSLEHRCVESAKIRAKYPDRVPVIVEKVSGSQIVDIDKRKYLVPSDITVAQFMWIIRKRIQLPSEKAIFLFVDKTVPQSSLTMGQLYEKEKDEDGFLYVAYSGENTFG
From the text: as §1
(§2) All proteins and peptides were expressed in E.Coli T7 Express (New England Biolabs GmbH, Frankfurt, Germany) cells in LB or M9 (to obtain ^15N- and ^13C,^15N-labeled polypeptides) media according to the protocol described in [33, 36]. For protein purification, bacterial cell pellets were resuspended in lysis buffer (50 mM Tris-HCl pH = 7.5, 100 mM NaCl, 5% glycerol, 5 mM PIC (protease inhibitor cocktail)) and lysed via sonication (TT13 Sonotrode, 40% amplitude, for 6 × 1 min with a 0.5/0.5-s pulse). Lysates were centrifuged for 45 min at 17,000× g at 4 °C. Supernatants were loaded onto a His Trap Fast Flow 5 mL column (GE Healthcare, München, Germany) equilibrated in loading buffer (50 mM Tris-HCl pH = 8.0, 250 mM NaCl, 1% glycerol, 20 mM imidazole). The column was washed with loading buffer for 5–10 CV and protein was eluted with elution buffer (50 mM Tris-HCl pH = 8, 250 mM NaCl, 1% glycerol, 400 mM imidazole). Simultaneous TEV cleavage (1 mg TEV protease was added to 100 mg peptides/proteins) and buffer exchange to loading buffer via dialysis was performed over night at 4 °C. After reverse IMAC, proteins were concentrated with conical concentrators (Millipore Merck, Darmstadt, Germany) and loaded on a Superdex 10/60 75 or 200 column (GE Healthcare, München, Germany) for further purification and equilibration with ITC/NMR buffer (25 mM HEPES pH = 7.5, 100 mM NaCl). For structural NMR spectroscopy, buffer containing 50 mM Tris-HCl pH = 7.5, 100 mM NaCl was used. Prior to NMR experiments, TCEP and protease inhibitors cocktail were added to the samples to final concentrations 1 and 5 mM, respectively. Purified peptides and protein were concentrated and stored at −80 °C. The protein and peptide concentrations were calculated from the UV absorption at 280 nm by Nanodrop spectrophotometer (Thermo Scientific, Langenselbold, Germany).
(§3) All ITC experiments were performed at 25 °C using a VP-ITC microcalorimeter (Malvern Panalytical Ltd., Malvern, UK). Peptides in concentration of ~400 µM were titrated into 20–25 µM solutions of corresponding binding partner at a stirring speed of 307 rpm. The raw data were corrected on the dilution heat of peptides obtained in independent experiment (titration of the peptide in syringe into the ITC/NMR buffer in the measuring cell). Pre-titration delay was set to 180 s, interval between titration steps was experimentally adjusted to avoid kinetic contribution to the observed heat effects and set to 200 s. A single ITC profile was collected for each type of interaction. The ITC data were analyzed based on a “one-site” binding model with MicroCal ITC software implemented in Origin 7.0.

UFM1 = molecular target: T3, UFM1 (Homo sapiens, UniProt P61960); experiment: ITC, UBA5 peptides vs UFM1; assay type: binding; settings: 25 °C
T3 construct: Full length UFM1, residues 2–83; modified ubiquitin tag (Ub19) with TEV site (N, cleaved yes); made in house; host or cells: E. coli T7 Express
T3 sequence (P61960 2-83): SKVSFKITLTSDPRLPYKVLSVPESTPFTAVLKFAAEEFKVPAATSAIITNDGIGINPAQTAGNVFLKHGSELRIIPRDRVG
From the text: as §1, §2, §3

LC3A = molecular target: T4, LC3A (Homo sapiens, UniProt Q9H492); experiment: ITC, UBA5 peptides vs LC3A; assay type: binding; settings: 25 °C
T4 construct: LC3A, residues 4–120; ubiquitin tag Ub3 (vector pETm60_Ub3) (cleaved yes); made in house; host or cells: E. coli T7 Express
T4 sequence (Q9H492 4-120): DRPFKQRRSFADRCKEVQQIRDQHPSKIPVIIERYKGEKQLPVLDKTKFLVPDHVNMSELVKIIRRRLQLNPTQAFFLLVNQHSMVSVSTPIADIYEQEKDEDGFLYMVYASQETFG
From the text: as §1
as §2, with “For structural NMR spectroscopy, buffer containing 50 mM Tris-HCl pH = 7.5, 100 mM NaCl was used. Prior to NMR experiments, TCEP and protease inhibitors cocktail were added to the samples to final concentrations 1 and 5 mM, respectively. Purified peptides and protein were concentrated and stored at −80 °C.” left out
All ITC experiments were performed at 25 °C using a VP-ITC microcalorimeter (Malvern Panalytical Ltd., Malvern, UK). […] The ITC data were analyzed based on a “one-site” binding model with MicroCal ITC software implemented in Origin 7.0.

Question: What does the source list for “R1-R2-R3^325–404: UBA5 C-terminal part, residues 325–404 (recombinant, E. coli)”?
Answer: effect on UFC1~UFM1 conjugation (in words) (UFC1): gets rescued; interaction with UBA5 AD (UBA5 AD^1–330): does not interact with the UBA5 AD; interaction with UBA5 AD (UBA5 AD^1–330; listed as R1‐R2‐R3325–404): No interactions; ΔG (GABARAPL2; vs GABARAPL2): -9.25 kcal/mol; ΔS (GABARAPL2; vs GABARAPL2): 2.04 cal mol^−1 K^−1; −T*ΔS (GABARAPL2; vs GABARAPL2): -0.61 kcal/mol; KA*10^−6 (GABARAPL2; vs GABARAPL2, value is KA × 10^−6, ± = fitting error): 5.99 ± 0.49 M^−1; affinity change, UFM1 (UFM1; compared with isolated R1^325−357 peptide (ref 31)): does not change significantly; ΔG (UFM1; vs UFM1): -7.15 kcal/mol; −T*ΔS (UFM1; vs UFM1): -1.31 kcal/mol; ΔS (UFM1; vs UFM1, one-site model, single profile): 4.41 cal mol^−1 K^−1; KA*10^−6 (UFM1; vs UFM1, value is KA × 10^−6, ± = fitting error): 0.17 ± 0.02 M^−1; ΔG (LC3A): -7.38 kcal/mol; −T*ΔS (LC3A): -3.13 kcal/mol; KA*10^−6 (LC3A; value is KA × 10^−6, ± = fitting error): 0.26 ± 0.03 M^−1
